From patent US7119182 (University of California, dated 2006)
Square brackets hold non-standard residues; d marks the D form. Ends that are not written are not given here. * marks the point of attachment. SMeMpr = S-methyl-3-mercaptopropionic acid, CSCCC(=O)*; Cha = N[C@@H](CC1CCCCC1)C(=O)O; Mpa = O=C(O)CCS

B1: SF(Cha) (Cha)RK-NH2 (peptide)
peptide: SF[Cha][Cha]RK-NH2
modifications: N-terminus assumed
SMILES: N=C(N)NCCC[C@H](NC(=O)[C@H](CC1CCCCC1)NC(=O)[C@H](CC1CCCCC1)NC(=O)[C@H](Cc1ccccc1)NC(=O)[C@@H](N)CO)C(=O)N[C@@H](CCCCN)C(N)=O
B2: SFF(Cha)RA-NH2 (peptide)
peptide: SFF[Cha]RA-NH2
modifications: N-terminus assumed
SMILES: C[C@H](NC(=O)[C@H](CCCNC(=N)N)NC(=O)[C@H](CC1CCCCC1)NC(=O)[C@H](Cc1ccccc1)NC(=O)[C@H](Cc1ccccc1)NC(=O)[C@@H](N)CO)C(N)=O
B3: Mpr-F(Cha) (Cha)RNPNDKYE-NH2 (peptide)
peptide: [Mpa]F[Cha][Cha]RNPNDKYE-NH2
SMILES: N=C(N)NCCC[C@H](NC(=O)[C@H](CC1CCCCC1)NC(=O)[C@H](CC1CCCCC1)NC(=O)[C@H](Cc1ccccc1)NC(=O)CCS)C(=O)N[C@@H](CC(N)=O)C(=O)N1CCC[C@H]1C(=O)N[C@@H](CC(N)=O)C(=O)N[C@@H](CC(=O)O)C(=O)N[C@@H](CCCCN)C(=O)N[C@@H](Cc1ccc(O)cc1)C(=O)N[C@@H](CCC(=O)O)C(N)=O
B4: Mpr-F(Cha) (Cha)RNPNDK-NH2 (peptide)
peptide: [Mpa]F[Cha][Cha]RNPNDK-NH2
SMILES: N=C(N)NCCC[C@H](NC(=O)[C@H](CC1CCCCC1)NC(=O)[C@H](CC1CCCCC1)NC(=O)[C@H](Cc1ccccc1)NC(=O)CCS)C(=O)N[C@@H](CC(N)=O)C(=O)N1CCC[C@H]1C(=O)N[C@@H](CC(N)=O)C(=O)N[C@@H](CC(=O)O)C(=O)N[C@@H](CCCCN)C(N)=O
B5: Mpr-F(Cha) (Cha)RNPNDK (peptide)
peptide: [Mpa]F[Cha][Cha]RNPNDK-OH
SMILES: N=C(N)NCCC[C@H](NC(=O)[C@H](CC1CCCCC1)NC(=O)[C@H](CC1CCCCC1)NC(=O)[C@H](Cc1ccccc1)NC(=O)CCS)C(=O)N[C@@H](CC(N)=O)C(=O)N1CCC[C@H]1C(=O)N[C@@H](CC(N)=O)C(=O)N[C@@H](CC(=O)O)C(=O)N[C@@H](CCCCN)C(=O)O
B6: Mpr-F(Cha) (Cha)RNPNDA-NH2 (peptide)
peptide: [Mpa]F[Cha][Cha]RNPNDA-NH2
SMILES: C[C@H](NC(=O)[C@H](CC(=O)O)NC(=O)[C@H](CC(N)=O)NC(=O)[C@@H]1CCCN1C(=O)[C@H](CC(N)=O)NC(=O)[C@H](CCCNC(=N)N)NC(=O)[C@H](CC1CCCCC1)NC(=O)[C@H](CC1CCCCC1)NC(=O)[C@H](Cc1ccccc1)NC(=O)CCS)C(N)=O
B7: (SMeMpr)-F(Cha)(Cha)RKPNDK-NH2 (peptide)
peptide: SMeMpr-F[Cha][Cha]RKPNDK-NH2
SMILES: CSCCC(=O)N[C@@H](Cc1ccccc1)C(=O)N[C@@H](CC1CCCCC1)C(=O)N[C@@H](CC1CCCCC1)C(=O)N[C@@H](CCCNC(=N)N)C(=O)N[C@@H](CCCCN)C(=O)N1CCC[C@H]1C(=O)N[C@@H](CC(N)=O)C(=O)N[C@@H](CC(=O)O)C(=O)N[C@@H](CCCCN)C(N)=O
B8: Mpr-F(Cha) (Cha)RNANDK-NH2 (peptide)
peptide: [Mpa]F[Cha][Cha]RNANDK-NH2
SMILES: C[C@H](NC(=O)[C@H](CC(N)=O)NC(=O)[C@H](CCCNC(=N)N)NC(=O)[C@H](CC1CCCCC1)NC(=O)[C@H](CC1CCCCC1)NC(=O)[C@H](Cc1ccccc1)NC(=O)CCS)C(=O)N[C@@H](CC(N)=O)C(=O)N[C@@H](CC(=O)O)C(=O)N[C@@H](CCCCN)C(N)=O
B9: Mpr-F(Cha) (Cha)RNPNAK-NH2 (peptide)
peptide: [Mpa]F[Cha][Cha]RNPNAK-NH2
SMILES: C[C@H](NC(=O)[C@H](CC(N)=O)NC(=O)[C@@H]1CCCN1C(=O)[C@H](CC(N)=O)NC(=O)[C@H](CCCNC(=N)N)NC(=O)[C@H](CC1CCCCC1)NC(=O)[C@H](CC1CCCCC1)NC(=O)[C@H](Cc1ccccc1)NC(=O)CCS)C(=O)N[C@@H](CCCCN)C(N)=O
B10: Mpr-F(Cha) (Cha)RNPNDKY-NH2 (peptide)
peptide: [Mpa]F[Cha][Cha]RNPNDKY-NH2
SMILES: N=C(N)NCCC[C@H](NC(=O)[C@H](CC1CCCCC1)NC(=O)[C@H](CC1CCCCC1)NC(=O)[C@H](Cc1ccccc1)NC(=O)CCS)C(=O)N[C@@H](CC(N)=O)C(=O)N1CCC[C@H]1C(=O)N[C@@H](CC(N)=O)C(=O)N[C@@H](CC(=O)O)C(=O)N[C@@H](CCCCN)C(=O)N[C@@H](Cc1ccc(O)cc1)C(N)=O
B11: Mpr-F(Cha) (Cha)RNPADK-NH2 (peptide)
peptide: [Mpa]F[Cha][Cha]RNPADK-NH2
SMILES: C[C@H](NC(=O)[C@@H]1CCCN1C(=O)[C@H](CC(N)=O)NC(=O)[C@H](CCCNC(=N)N)NC(=O)[C@H](CC1CCCCC1)NC(=O)[C@H](CC1CCCCC1)NC(=O)[C@H](Cc1ccccc1)NC(=O)CCS)C(=O)N[C@@H](CC(=O)O)C(=O)N[C@@H](CCCCN)C(N)=O
B12: Mpr-F(Cha) (Cha)RKPNDA-NH2 (peptide)
peptide: [Mpa]F[Cha][Cha]RKPNDA-NH2
SMILES: C[C@H](NC(=O)[C@H](CC(=O)O)NC(=O)[C@H](CC(N)=O)NC(=O)[C@@H]1CCCN1C(=O)[C@H](CCCCN)NC(=O)[C@H](CCCNC(=N)N)NC(=O)[C@H](CC1CCCCC1)NC(=O)[C@H](CC1CCCCC1)NC(=O)[C@H](Cc1ccccc1)NC(=O)CCS)C(N)=O
B13: Mpr-F(Cha) (Cha)RFPNDK-NH2 (peptide)
peptide: [Mpa]F[Cha][Cha]RFPNDK-NH2
SMILES: N=C(N)NCCC[C@H](NC(=O)[C@H](CC1CCCCC1)NC(=O)[C@H](CC1CCCCC1)NC(=O)[C@H](Cc1ccccc1)NC(=O)CCS)C(=O)N[C@@H](Cc1ccccc1)C(=O)N1CCC[C@H]1C(=O)N[C@@H](CC(N)=O)C(=O)N[C@@H](CC(=O)O)C(=O)N[C@@H](CCCCN)C(N)=O
B14: Mpr-F(Cha) (Cha)RN-NH2 (peptide)
peptide: [Mpa]F[Cha][Cha]RN-NH2
SMILES: N=C(N)NCCC[C@H](NC(=O)[C@H](CC1CCCCC1)NC(=O)[C@H](CC1CCCCC1)NC(=O)[C@H](Cc1ccccc1)NC(=O)CCS)C(=O)N[C@@H](CC(N)=O)C(N)=O
B15: Mpr-F(Cha) (Cha)RAPNDK-NH2 (peptide)
peptide: [Mpa]F[Cha][Cha]RAPNDK-NH2
SMILES: C[C@H](NC(=O)[C@H](CCCNC(=N)N)NC(=O)[C@H](CC1CCCCC1)NC(=O)[C@H](CC1CCCCC1)NC(=O)[C@H](Cc1ccccc1)NC(=O)CCS)C(=O)N1CCC[C@H]1C(=O)N[C@@H](CC(N)=O)C(=O)N[C@@H](CC(=O)O)C(=O)N[C@@H](CCCCN)C(N)=O
B16: Mpr-F(Cha) (Cha)RGPNDK-NH2 (peptide)
peptide: [Mpa]F[Cha][Cha]RGPNDK-NH2
SMILES: N=C(N)NCCC[C@H](NC(=O)[C@H](CC1CCCCC1)NC(=O)[C@H](CC1CCCCC1)NC(=O)[C@H](Cc1ccccc1)NC(=O)CCS)C(=O)NCC(=O)N1CCC[C@H]1C(=O)N[C@@H](CC(N)=O)C(=O)N[C@@H](CC(=O)O)C(=O)N[C@@H](CCCCN)C(N)=O
B17: Mpr-F(Cha) (Cha)RNPND-NH2 (peptide)
peptide: [Mpa]F[Cha][Cha]RNPND-NH2
SMILES: N=C(N)NCCC[C@H](NC(=O)[C@H](CC1CCCCC1)NC(=O)[C@H](CC1CCCCC1)NC(=O)[C@H](Cc1ccccc1)NC(=O)CCS)C(=O)N[C@@H](CC(N)=O)C(=O)N1CCC[C@H]1C(=O)N[C@@H](CC(N)=O)C(=O)N[C@@H](CC(=O)O)C(N)=O

Target: T1, human thrombin receptor (human, UniProt P25116 42-425)
T1 chain: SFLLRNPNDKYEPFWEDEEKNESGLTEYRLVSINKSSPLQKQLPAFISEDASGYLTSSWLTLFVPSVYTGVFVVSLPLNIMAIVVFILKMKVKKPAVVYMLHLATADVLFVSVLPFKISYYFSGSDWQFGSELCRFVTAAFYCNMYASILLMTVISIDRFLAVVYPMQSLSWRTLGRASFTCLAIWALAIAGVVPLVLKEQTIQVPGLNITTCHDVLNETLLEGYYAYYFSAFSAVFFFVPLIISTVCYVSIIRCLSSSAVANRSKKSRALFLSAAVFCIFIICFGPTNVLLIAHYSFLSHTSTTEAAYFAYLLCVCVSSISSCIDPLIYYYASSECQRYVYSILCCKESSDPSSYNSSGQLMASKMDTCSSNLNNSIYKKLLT
Assay: cell-based or functional assay

Row | Binder | EC50 (concentration required to elicit a 50% maximal aggregation), platelet aggregation [µM]
1 | B1 | 0.82
2 | SFLLKN-NH2 [SFLLKN-NH2] | 11.1
3 | B2 | 1.4
4 | SFLLLN-NH2 [SFLLLN-NH2] | 44.9
5 | SFLLQN-NH2 [SFLLQN-NH2] | 20.2

Target: T1, human thrombin receptor
Assay: cell-based or functional assay
Remark: another data set of the same source

Row | Binder | IC50 (50% inhibition of thrombin-induced platelet activation or aggregation) [µM]
6 | B3 | 80
7 | B4 | 25
8 | B5 | 30
9 | [Mpa]FLLRNPNC-NH2 (cysteine pairing not given here) [Mpr-FLLRNPNC-NH2] | 400
10 | {Cam‑Mpr}-FLLR-NH2 [[Cam-Mpr]-FLLR-NH2] | 1000
11 | B6 | 50
12 | B7 | 10
13 | B8 | 75
14 | B9 | > 100
15 | B10 | 75
16 | Pivaloyl-FLLR-NH2 [Pivaloyl-FLLR-NH2] | 1000
17 | [Mpa]F[Cha][Cha]RKPNEK-NH2 [Mpr-P(Cha) (Cha)RKPNEK-NH2] | 10
18 | B11 | 75
19 | [Mpa]F[Cha][Cha]RNPNDKY [Mpr-F(Cha) (Cha)RNPNDKY] | 40
20 | B12 | 50
21 | B13 | > 100
22 | B14 | 100
23 | [Mpa]F[Cha][Cha]RKPNDK-NH2 [Mpr-F(Cha) (Cha)RKPNDK-NH2] | 5
24 | B15 | 40
25 | B16 | 20
26 | B17 | 50
